Experimental data published in PMC6497169 (Nature microbiology, 2017).

T1: IcmW (L. pneumophila (Philadelphia-1), UniProt Q5ZS31 1-151)
T1 sequence: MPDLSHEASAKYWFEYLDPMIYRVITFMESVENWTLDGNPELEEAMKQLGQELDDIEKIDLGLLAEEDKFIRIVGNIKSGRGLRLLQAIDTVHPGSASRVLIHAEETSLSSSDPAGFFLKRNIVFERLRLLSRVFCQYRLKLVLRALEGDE

T2: DotN(7–214) (L. pneumophila (Philadelphia-1), UniProt Q5ZYB7 7-214)
T2 sequence: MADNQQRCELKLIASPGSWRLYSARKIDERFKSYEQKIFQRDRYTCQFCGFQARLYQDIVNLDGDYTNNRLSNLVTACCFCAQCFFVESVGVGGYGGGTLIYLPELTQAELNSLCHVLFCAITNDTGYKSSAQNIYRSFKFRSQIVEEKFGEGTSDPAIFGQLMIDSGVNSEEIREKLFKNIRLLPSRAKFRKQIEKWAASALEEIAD

B1: DotL(656–783) (domain or fragment)
chain: GQNEPEPVEDIVEEEVEGALTIFSKLRIDPNAPPILVADKEVFSEPLLPINETRNQMITIERLAGAKDKYAGTVANELIKDFQIATSYPPEERDVIDVQELTGIIRDLSAKISAEREKANKKAAEELT
B2: DotL(590–659) (domain or fragment)
chain: VEPPPDDYLMKLQKQLASFQSILESGDLSINKAVENEEITLISKALKESTIVEPIERGVAALIAFHGQNE

Assays:
IcmW = target: T1, IcmW; assay: crystal structure
DotN(7–214) = target: T2, DotN(7–214); assay: crystal structure

Binder | binding result (IcmW) | binding result (DotN(7–214))
B1 | binds | –
B2 | – | binds
